Target: p38α kinase (residues 1–360 of human p38α) (human, UniProt Q16539 1-360)
Assay: ITC

Sequence of p38α kinase (residues 1–360 of human p38α) (Q16539 whole entry, the tested form may be a part): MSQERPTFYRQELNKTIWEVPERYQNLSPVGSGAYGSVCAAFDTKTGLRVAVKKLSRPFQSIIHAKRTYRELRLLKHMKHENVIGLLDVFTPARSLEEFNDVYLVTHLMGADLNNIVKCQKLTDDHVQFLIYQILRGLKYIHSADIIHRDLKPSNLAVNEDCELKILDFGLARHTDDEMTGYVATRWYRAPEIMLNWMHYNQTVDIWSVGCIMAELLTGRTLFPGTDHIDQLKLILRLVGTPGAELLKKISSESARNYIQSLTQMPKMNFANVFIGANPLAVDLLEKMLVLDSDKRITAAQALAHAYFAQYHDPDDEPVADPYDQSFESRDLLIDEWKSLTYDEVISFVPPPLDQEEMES

B1: regulatory domain of MKK4 (residues 12–86) with N-terminal thioredoxin and 6xHis tag, unlabeled, for ITC (domain or fragment)
chain: SGGGSGSGTPGPVGSPAPGHPAVSSMQGKRKALKLNFANPPFKSTARFTLNPNPTGVQNPHIERLRTHSIESSGK
Kd: 4.1 µM

— article PMC8391806 (2021)
